Results published in the RNAGym collection of RNA variant scans (doi:10.7554/elife.80360).

B1: Twister Ribozyme (parent)
chain: AACACUGCCAAUGCCGGUCCCAAGCCCGGAUAAAAGUGGAGGGGGCGG

Variants of: B1
Experiment: self-cleavage, relative activity (ratio to wild type); higher = more cleavage; co-transcriptional

Variant | self-cleavage
C8G U12G | 0.676
C8G G16A | 0.061
C8G G16C | 0.0753
C8G G41U | 0.129
C9A G38U | 0.32
C8A A22C | 0.45
C8A A22G | 0.107
C9A C19U | 0.197
C8A A34G | 0.701
C8A A34U | 0.675
G7C G45A | 0.0964
G7C G45C | 0.0912
C8G C14U | 0.625
C8U A40G | 0.172
C9A A33C | 0.603
C9A G43C | 0.0978
C8U A22G | 0.1
C8U A22U | 0.419
C8A U12G | 0.213
C8A U12C | 0.504
G7C G16U | 0.0598
G7C G16A | 0.0653
G7U C8A | 0.0463
G7U C8U | 0.0467

Variant | self-cleavage
C8A G16A | 0.153
C8A G16C | 0.0923
C9A G45U | 0.232
C9A U18G | 0.159
C8U U18G | 0.0414
C8U U18C | 0.0906
C9A G36A | 0.178
C9A G36U | 0.0953
C8A C15A | 0.134
C9A U12G | 0.417
C9A U12A | 0.916
G7U C15U | 0.101
G7U C15G | 0.0331
C9A A23C | 0.0979
C9A A23U | 0.066
C8A A40G | 0.17
C8A A40C | 0.113
C8A A40U | 0.2
C8G C46A | 0.231
C8G C46G | 0.344
G7U C25G | 0.401
C8U G44U | 0.603
G7U A32C | 0.0917
C8G A22C | 0.437

Variant | self-cleavage
G7U G16C | 0.0533
C8U A23C | 0.0653
G7C U37A | 0.0472
G7C U37G | 0.062
G7U G13U | 0.0485
G7U C26U | 0.0446
G7C G28C | 0.0717
G7U A10G | 0.237
G7U A10U | 0.0807
C8A C25A | 0.0389
G7U C9A | 0.0711
G7U C9G | 0.0496
C8G G36A | 0.129
C8G G36U | 0.11
C8A A23G | 0.0496
C8A A23U | 0.0553
C8A A23C | 0.0825
C9G A33G | 0.548
C9G A33C | 0.548
C9G A33U | 0.689
C8G U18A | 0.0816
C9A G47C | 0.221
C9A G47A | 0.336
C9A G47U | 0.244

Variant | self-cleavage
C8U G13C | 0.121
C8U G13A | 0.342
G7C G42U | 0.0563
G7U C46G | 0.047
G7U C46U | 0.103
C8G C21U | 0.0624
C8G C21A | 0.041
G7U A23C | 0.0594
G7U A23G | 0.0791
C8G G28C | 0.083
C8G G28U | 0.0873
C8U C26A | 0.117
C8A C46U | 0.46
C8A C20U | 0.0847
C8A C20A | 0.0847
C8U C27A | 0.0891
C8U C27G | 0.0565
C8U C27U | 0.288
G7U G41A | 0.0662
G7U G41U | 0.0899
C9A U37A | 0.233
C9A U37G | 0.33
C8A G28A | 0.281
C9G A11G | 0.715

Variant | self-cleavage
C9G A11U | 0.985
C9A G42A | 0.149
C9A G42U | 0.149
C8A G43C | 0.153
G7U G44C | 0.0951
C8A C14G | 0.0608
C8A C14A | 0.529
C8A C14U | 0.597
C8U G38C | 0.644
G7U C19A | 0.0864
C8G A35U | 0.566
C8G A35C | 0.478
C8G A35G | 0.222
C8G G38A | 0.325
C9A C21G | 0.164
C9A C21A | 0.0865
C9A C21U | 0.0545
G7U G29U | 0.0673
C8A U31C | 0.652
C8A U31A | 0.433
C8A G42U | 0.168
C8A G42A | 0.141
C8A G42C | 0.285
G7U A40G | 0.0793

Variant | self-cleavage
G7U A40C | 0.0967
G7U A40U | 0.072
C8G G13C | 0.0604
C8G G13A | 0.405
G7C C26U | 0.0512
C9A G17A | 0.109
C9A C20U | 0.15
C9A C20A | 0.0653
G7U U18C | 0.0819
G7U U18A | 0.0251
G7U U18G | 0.0649
C8U U37G | 0.382
C8U A34C | 0.134
C8U A34U | 0.308
C8U A34G | 0.582
C8G C9A | 0.0971
G7U A30G | 0.163
C8U A11U | 0.973
C8U A11C | 0.89
G7U G36U | 0.0615
G7U G36A | 0.0763
G7U G36C | 0.0408
C8A G13C | 0.0783
G7C G29U | 0.0704

Variant | self-cleavage
G7U C27U | 0.079
G7U C27A | 0.0728
G7C G13U | 0.0637
C8U G48U | 0.678
C8G G44U | 0.275
C8G G44A | 0.513
G7C G44C | 0.0685
C9A A11G | 0.735
C9A A11C | 1.03
C9A A11U | 0.767
C9G A30G | 0.791
C8U U12G | 0.429
G7C G39A | 0.0735
G7C G39U | 0.058
C8G A10G | 0.592
C8G A10C | 0.872
C8G U31G | 0.464
G7U G39U | 0.0651
C8A U18G | 0.0805
C8A U18A | 0.111
C8A A32U | 0.275
C9A G44U | 0.544
C8A G36U | 0.108
C8U U31C | 0.713

Variant | self-cleavage
G7C G36U | 0.0725
G7C G36A | 0.0583
C9A C26G | 0.0708
C9A C26A | 0.11
C8A G48U | 0.257
C8A G48A | 0.215
C8A G48C | 0.346
C8A C21G | 0.076
C8A C21A | 0.0745
G7U A33G | 0.0484
G7U A33C | 0.0647
C9A A34C | 0.18
C8A G39U | 0.123
C8A G24A | 0.18
C8A C27A | 0.0935
C8A C27G | 0.0579
G7U C20U | 0.0823
G7U C20G | 0.0693
C8A A30C | 0.147
C8A A30U | 0.284
G7C G17C | 0.0528
G7C G17A | 0.0642
G7C G48U | 0.0851
G7C G48A | 0.0718

Variant | self-cleavage
C8G G39U | 0.129
C9G A32G | 0.731
C9G A32C | 0.195
C8U A32C | 0.733
G7U C21A | 0.0755
C9A C25A | 0.0586
G7C C46U | 0.0589
G7C C46A | 0.0371
G7C C46G | 0.0721
C8G G42U | 0.147
C8A C26A | 0.106
C8A C26G | 0.0829
C9A C15G | 0.0772
C8U C9G | 0.158
C8U C9U | 0.0747
G7C C25U | 0.128
C8A G38A | 0.343
C8A G38C | 0.161
G7U G28U | 0.0862
G7U G28C | 0.0665
C8G C19U | 0.113
G7U G24A | 0.0738
C8G A23C | 0.0689
C8U G24U | 0.177

Variant | self-cleavage
G7C U31G | 0.0544
G7C U31A | 0.0718
G7C U31C | 0.0704
G7C G24C | 0.059
G7C G24U | 0.0628
C8A A33C | 0.279
C8A G44C | 0.276
C8A G44U | 0.271
C8A C19G | 0.0926
C8U G39A | 0.161
C8U G39U | 0.136
C8G A11U | 0.691
C8G A11C | 0.55
C9A A40U | 0.119
C9A A40C | 0.108
C8G C15G | 0.062
C8G C20U | 0.0992
C8U G41A | 0.112
C8U C21G | 0.0658
C8U C21U | 0.0732
C8U C25G | 0.1
C8U C25U | 0.195
C8U C25A | 0.0853
C8A G29U | 0.295

Variant | self-cleavage
C8A G29C | 0.0825
C8A G29A | 0.327
G7U G38A | 0.0965
C8G C25U | 0.112
C8G A33U | 0.279
C8G A33G | 0.232
C9A C46G | 0.59
C8G G24U | 0.747
C8U C19U | 0.35
G7U G42A | 0.0796
G7U G42C | 0.0955
C9G A23C | 0.0567
G7U U37C | 0.0889
G7U U37G | 0.0777
G7U A11G | 0.131
G7U A34U | 0.0892
C8G C26G | 0.12
C8A G45U | 0.176
C8A G45C | 0.141
C8A G45A | 0.203
C9A G24C | 0.119
C8U G42A | 0.127
C8U G42U | 0.133
C8U G45C | 0.141

Variant | self-cleavage
C8U G45A | 0.492
G7U C14A | 0.133
G7U C14G | 0.0477
C9A G13U | 0.927
G7U G43U | 0.102
G7U | 0.143
C8G G45A | 0.207
C8G G45U | 0.183
C8G G45C | 0.118
C8G G43C | 0.139
C8G G43A | 0.137
C8G G43U | 0.148
C9A A32U | 0.558
G7U G48C | 0.123
G7U G48U | 0.0928
C8G A40G | 0.146
C8A A10U | 0.239
G7U G45C | 0.118
C9A G39C | 0.119
C8U A33U | 0.531
C8U A33C | 0.447
C8U A33G | 0.25
C8G A30G | 0.643
C8G A30U | 0.409

Variant | self-cleavage
C8G A30C | 0.122
C8U C20A | 0.0588
G7U G17C | 0.0441
G7U G17A | 0.0885
C8U G43C | 0.101
C8U G43A | 0.145
G7U U31C | 0.111
C9A C14G | 0.0661
C9G A10U | 0.859
C9G A10C | 0.857
C9G A10G | 0.656
G7C G43U | 0.0777
G7C G43A | 0.0617
C8G G48A | 0.227
C8G C27U | 0.14
C8G C27A | 0.0513
C8A U37A | 0.225
C8A G17U | 0.0971
C8A G17C | 0.0615
C8A G17A | 0.12
G7U G47A | 0.0641
C8U G28U | 0.467
C8A G41U | 0.146
C8A G41C | 0.124

Variant | self-cleavage
C9A G29A | 0.627
C9A G29C | 0.307
C9A G29U | 0.686
G7C U18G | 0.0952
G7C U18C | 0.0305
C9A U31C | 0.765
C9A U31G | 0.777
C8A C9A | 0.0842
C8A C9G | 0.122
C8A C9U | 0.0937
G7C G41A | 0.0519
G7C U12G | 0.0541
G7C U12A | 0.0478
G7C G47U | 0.0642
G7C G47A | 0.0829
C8U A35C | 0.547
C8U A35U | 0.756
C9A G16U | 0.254
C9A G41U | 0.179
C8U G29A | 0.516
C8U G29U | 0.577
C8U A30U | 0.662
